In patent US20120034160A1 (AbbVie / Abbott, published 2012):

T1: Recombinant Human IL-17 (human, UniProt Q16552 20-155, limits assumed)
T1 sequence (looked up): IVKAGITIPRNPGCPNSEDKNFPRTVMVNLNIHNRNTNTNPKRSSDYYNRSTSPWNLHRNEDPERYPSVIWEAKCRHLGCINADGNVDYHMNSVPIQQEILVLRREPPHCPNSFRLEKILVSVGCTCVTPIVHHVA


Experiments:
Recombinant Human IL-17 = molecular target: T1, Recombinant Human IL-17; assay: cell-based or functional assay
Recombinant Human IL-1β = Recombinant Human IL-1β (human, UniProt P01584 117-269); assay: cell-based or functional assay

Binder	N-terminal VD IL-17 Neutralization Assay EC50 (Recombinant Human IL-17)	C-Terminal VD IL-1β Neutralization Assay EC50 (Recombinant Human IL-1β)	C-terminal VD IL-17 Neutralization Assay EC50 (Recombinant Human IL-17)	N-Terminal VD IL-1β Neutralization Assay EC50 (Recombinant Human IL-1β)
DVD1589 (bispecific antibody, human IgG1, kappa) heavy: not shown light: DIQMTQSPSSLSASVGDRVTITCRASGNIHNYLTWYQQTPGKAPKLLIYNAKTLADGVPSRFSGSGSGTDYTFTISSLQPEDIATYYCQHFWSIPYTFGQGTKLQITRTVAAPSVFIFPPDIQMTQSPSSLSASVGDRVTITCRASSGIISYIDWFQQKPGKAPKRLIYATFDLASGVPSRFSGSGSGTDYTLTISSLQPEDFATYYCRQVGSYPETFGQGTKLEIKRTVAAPSVFIFPPSDEQLKSGTASVVCLLNNFYPREAKVQWKVDNALQSGNSQESVTEQDSKDSTYSLSSTLTLSKADYEKHKVYACEVTHQGLSSPVTKSFNRGEC			1.1 pM	6.8 pM
DVD1287 (bispecific antibody, human IgG1, kappa) heavy: not shown light: EIVLTQSPDFQSVTPKEKVTITCRASQNIGSELHWYQQKPDQSPKLLIKYASHSISGVPSRFSGSGSGTDFTLTINGLEAEDAATYYCHQSDTLPHTFGQGTKVDIKRTVAAPDTQVTQSPSSLSASVGDRVTITCITSTDIDVDMNWYQQKPGKPPKLLISQGNTLRPGVPSRFSSSGSGTDFTFTISSLQPEDFATYYCLQSDNLPLTFGQGTKLEIKRTVAAPSVFIFPPSDEQLKSGTASVVCLLNNFYPREAKVQWKVDNALQSGNSQESVTEQDSKDSTYSLSSTLTLSKADYEKHKVYACEVTHQGLSSPVTKSFNRGEC	3.5 pM	> 50000 pM		
DVD1291 (bispecific antibody, human IgG1, kappa) heavy: not shown light: EIVLTQSPDFQSVTPKEKVTITCRASQNIGSELHWYQQKPDQSPKLLIKYASHSISGVPSRFSGSGSGTDFTLTINGLEAEDAATYYCHQSDTLPHTFGQGTKVDIKRTVAAPETTVTQSPSSLSASVGDRVTITCITSTDIDVDMNWYQQKPGKPPKLLISQGNTLRPGVPSRFSSSGSGTDFTFTISSLQPEDFATYYCLQSDNLPLTFGQGTKLEIKRTVAAPSVFIFPPSDEQLKSGTASVVCLLNNFYPREAKVQWKVDNALQSGNSQESVTEQDSKDSTYSLSSTLTLSKADYEKHKVYACEVTHQGLSSPVTKSFNRGEC	6.2 pM	> 100000 pM		
DVD1289 (bispecific antibody, human IgG1, kappa) heavy: not shown light: EIVLTQSPDFQSVTPKEKVTITCRASQNIGSELHWYQQKPDQSPKLLIKYASHSISGVPSRFSGSGSGTDFTLTINGLEAEDAATYYCHQSDTLPHTFGQGTKVDIKRTVAAPDTVVTQSPAFLSVTPGEKVTITCITSTDIDVDMNWYQQKPDQPPKLLISQGNTLRPGVPSRFSSSGSGTDFTFTISSLEAEDAATYYCLQSDNLPLTFGQGTKLEIKRTVAAPSVFIFPPSDEQLKSGTASVVCLLNNFYPREAKVQWKVDNALQSGNSQESVTEQDSKDSTYSLSSTLTLSKADYEKHKVYACEVTHQGLSSPVTKSFNRGEC	96 pM	18800 pM		
DVD1288 (bispecific antibody, human IgG1, kappa) heavy: not shown light: DTVVTQSPAFLSVTPGEKVTITCITSTDIDVDMNWYQQKPDQPPKLLISQGNTLRPGVPSRFSSSGSGTDFTFTISSLEAEDAATYYCLQSDNLPLTFGQGTKLEIKRTVAAPEIVLTQSPDFQSVTPKEKVTITCRASQNIGSELHWYQQKPDQSPKLLIKYASHSISGVPSRFSGSGSGTDFTLTINGLEAEDAATYYCHQSDTLPHTFGQGTKVDIKRTVAAPSVFIFPPSDEQLKSGTASVVCLLNNFYPREAKVQWKVDNALQSGNSQESVTEQDSKDSTYSLSSTLTLSKADYEKHKVYACEVTHQGLSSPVTKSFNRGEC			111 pM	212 pM
DVD1290 (bispecific antibody, human IgG1, kappa) heavy: not shown light: ETTVTQSPSSLSASVGDRVTITCITSTDIDVDMNWYQQKPGKPPKLLISQGNTLRPGVPSRFSSSGSGTDFTFTISSLQPEDFATYYCLQSDNLPLTFGQGTKLEIKRTVAAPEIVLTQSPDFQSVTPKEKVTITCRASQNIGSELHWYQQKPDQSPKLLIKYASHSISGVPSRFSGSGSGTDFTLTINGLEAEDAATYYCHQSDTLPHTFGQGTKVDIKRTVAAPSVFIFPPSDEQLKSGTASVVCLLNNFYPREAKVQWKVDNALQSGNSQESVTEQDSKDSTYSLSSTLTLSKADYEKHKVYACEVTHQGLSSPVTKSFNRGEC			18.1 pM	252 pM

Second part, the binder after the results:

N-terminal VD IL-17 Neutralization Assay EC50 (Recombinant Human IL-17)	C-Terminal VD IL-1β Neutralization Assay EC50 (Recombinant Human IL-1β)	C-terminal VD IL-17 Neutralization Assay EC50 (Recombinant Human IL-17)	N-Terminal VD IL-1β Neutralization Assay EC50 (Recombinant Human IL-1β)	Binder
0.7 pM	3440 pM			DVD1596 (bispecific antibody, human IgG1, kappa) heavy: not shown light: DIQMTQSPSSLSASVGDRVTITCRASSGIISYIDWFQQKPGKAPKRLIYATFDLASGVPSRFSGSGSGTDYTLTISSLQPEDFATYYCRQVGSYPETFGQGTKLEIKRTVAAPSVFIFPPDTVVTQSPAFLSVTPGEKVTITCITSTDIDVDMNWYQQKPDQPPKLLISQGNTLRPGVPSRFSSSGSGTDFTFTISSLEAEDAATYYCLQSDNLPLTFGQGTKLEIKRTVAAPSVFIFPPSDEQLKSGTASVVCLLNNFYPREAKVQWKVDNALQSGNSQESVTEQDSKDSTYSLSSTLTLSKADYEKHKVYACEVTHQGLSSPVTKSFNRGEC
		1.9 pM	204 pM	DVD1595 (bispecific antibody, human IgG1, kappa) heavy: not shown light: DTVVTQSPAFLSVTPGEKVTITCITSTDIDVDMNWYQQKPDQPPKLLISQGNTLRPGVPSRFSSSGSGTDFTFTISSLEAEDAATYYCLQSDNLPLTFGQGTKLEIKRTVAAPSVFIFPPDIQMTQSPSSLSASVGDRVTITCRASSGIISYIDWFQQKPGKAPKRLIYATFDLASGVPSRFSGSGSGTDYTLTISSLQPEDFATYYCRQVGSYPETFGQGTKLEIKRTVAAPSVFIFPPSDEQLKSGTASVVCLLNNFYPREAKVQWKVDNALQSGNSQESVTEQDSKDSTYSLSSTLTLSKADYEKHKVYACEVTHQGLSSPVTKSFNRGEC
1.6 pM	1600 pM			DVD1590 (bispecific antibody, human IgG1, kappa) heavy: not shown light: DIQMTQSPSSLSASVGDRVTITCRASSGIISYIDWFQQKPGKAPKRLIYATFDLASGVPSRFSGSGSGTDYTLTISSLQPEDFATYYCRQVGSYPETFGQGTKLEIKRTVAAPSVFIFPPDIQMTQSPSSLSASVGDRVTITCRASGNIHNYLTWYQQTPGKAPKLLIYNAKTLADGVPSRFSGSGSGTDYTFTISSLQPEDIATYYCQHFWSIPYTFGQGTKLQITRTVAAPSVFIFPPSDEQLKSGTASVVCLLNNFYPREAKVQWKVDNALQSGNSQESVTEQDSKDSTYSLSSTLTLSKADYEKHKVYACEVTHQGLSSPVTKSFNRGEC
11.7 pM	109 pM			DVD1592 (bispecific antibody, human IgG1, kappa) heavy: not shown light: DIQMTQSPSSLSASVGDRVTITCRASSGIISYIDWFQQKPGKAPKRLIYATFDLASGVPSRFSGSGSGTDYTLTISSLQPEDFATYYCRQVGSYPETFGQGTKLEIKRTVAAPSVFIFPPDIQMTQSPSSLSASVGDRVTITCRASGNIHNYLTWYQQTPGKAPKLLIYNAKTLADGVPSRFSGSGSGTDYTFTISSLQPEDIATYYCQHFWSIPYTFGQGTKLQITRTVAAPSVFIFPPSDEQLKSGTASVVCLLNNFYPREAKVQWKVDNALQSGNSQESVTEQDSKDSTYSLSSTLTLSKADYEKHKVYACEVTHQGLSSPVTKSFNRGEC
		39.3 pM	2.3 pM	DVD1591 (bispecific antibody, human IgG1, kappa) heavy: not shown light: DIQMTQSPSSLSASVGDRVTITCRASGNIHNYLTWYQQTPGKAPKLLIYNAKTLADGVPSRFSGSGSGTDYTFTISSLQPEDIATYYCQHFWSIPYTFGQGTKLQITRTVAAPSVFIFPPDIQMTQSPSSLSASVGDRVTITCRASSGIISYIDWFQQKPGKAPKRLIYATFDLASGVPSRFSGSGSGTDYTLTISSLQPEDFATYYCRQVGSYPETFGQGTKLEIKRTVAAPSVFIFPPSDEQLKSGTASVVCLLNNFYPREAKVQWKVDNALQSGNSQESVTEQDSKDSTYSLSSTLTLSKADYEKHKVYACEVTHQGLSSPVTKSFNRGEC
		1 pM	184 pM	DVD1593 (bispecific antibody, human IgG1, kappa) heavy: not shown light: DTQVTQSPSSLSASVGDRVTITCITSTDIDVDMNWYQQKPGKPPKLLISQGNTLRPGVPSRFSSSGSGTDFTFTISSLQPEDFATYYCLQSDNLPLTFGQGTKLEIKRTVAAPSVFIFPPDIQMTQSPSSLSASVGDRVTITCRASSGIISYIDWFQQKPGKAPKRLIYATFDLASGVPSRFSGSGSGTDYTLTISSLQPEDFATYYCRQVGSYPETFGQGTKLEIKRTVAAPSVFIFPPSDEQLKSGTASVVCLLNNFYPREAKVQWKVDNALQSGNSQESVTEQDSKDSTYSLSSTLTLSKADYEKHKVYACEVTHQGLSSPVTKSFNRGEC
		0.8 pM	326 pM	DVD1597 (bispecific antibody, human IgG1, kappa) heavy: not shown light: ETTVTQSPSSLSASVGDRVTITCITSTDIDVDMNWYQQKPGKPPKLLISQGNTLRPGVPSRFSSSGSGTDFTFTISSLQPEDFATYYCLQSDNLPLTFGQGTKLEIKRTVAAPSVFIFPPDIQMTQSPSSLSASVGDRVTITCRASSGIISYIDWFQQKPGKAPKRLIYATFDLASGVPSRFSGSGSGTDYTLTISSLQPEDFATYYCRQVGSYPETFGQGTKLEIKRTVAAPSVFIFPPSDEQLKSGTASVVCLLNNFYPREAKVQWKVDNALQSGNSQESVTEQDSKDSTYSLSSTLTLSKADYEKHKVYACEVTHQGLSSPVTKSFNRGEC
2.5 pM	9100 pM			DVD1594 (bispecific antibody, human IgG1, kappa) heavy: not shown light: DIQMTQSPSSLSASVGDRVTITCRASSGIISYIDWFQQKPGKAPKRLIYATFDLASGVPSRFSGSGSGTDYTLTISSLQPEDFATYYCRQVGSYPETFGQGTKLEIKRTVAAPSVFIFPPDTQVTQSPSSLSASVGDRVTITCITSTDIDVDMNWYQQKPGKPPKLLISQGNTLRPGVPSRFSSSGSGTDFTFTISSLQPEDFATYYCLQSDNLPLTFGQGTKLEIKRTVAAPSVFIFPPSDEQLKSGTASVVCLLNNFYPREAKVQWKVDNALQSGNSQESVTEQDSKDSTYSLSSTLTLSKADYEKHKVYACEVTHQGLSSPVTKSFNRGEC
